# In IntAct's records for PubMed 25374563:
# B1: Tyrosine-protein kinase YwqD (Bacillus subtilis), P96716 (parent)
# chain: MALRKNRGSRMQRNVIAMTEPKSLNSEQYRTIRTNIEFASVDRQMKSVMITSACPGEGKSTTAANLAVVFAQQGKKVLLIDADLRKPTVHTAFFLENTVGLTSVLLKKSSMEQAVQASNEKHLDVLTSGPIPPNPAELLSSKWMKELAYEACAAYDMVIFDTPPILAVADAQILGNVADGSVLVISSGKTEKEQAAKAKEALATCKSKLLGAIMNGKKLSKHSEYGYYGTKDNFMQK
# partner: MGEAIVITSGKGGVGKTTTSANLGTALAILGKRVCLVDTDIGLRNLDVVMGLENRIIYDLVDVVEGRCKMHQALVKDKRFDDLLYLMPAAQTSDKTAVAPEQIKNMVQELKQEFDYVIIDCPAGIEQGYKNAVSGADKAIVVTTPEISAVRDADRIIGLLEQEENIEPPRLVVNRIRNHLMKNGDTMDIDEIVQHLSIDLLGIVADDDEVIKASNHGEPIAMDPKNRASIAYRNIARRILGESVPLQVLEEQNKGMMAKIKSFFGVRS
# Variants of: B1
# Settings: with mind_bacsu minD
row,effect of a mutation on the interaction,Variant
1,disrupting interaction strength,K59M
2,decreasing interaction strength,D81A
